# B1: 1F6-vcAFP: anti-CD70 mAb 1F6 linked to auristatin phenylalanine phenylenediamine by the valine-citrulline (vc) dipeptide linker (conjugate)
# VH: QIQLVQSGPEVKKPGETVKISCKASGYTFTNYGMNWVKQAPGKGLKWMGWINTYTGEPTYADAFKGRFAFSLETSASTAYLQINNLKNEDTATYFCARDYGDYGMDYWGQGTSVTVSS
# VL: DIVLTQSPASLAVSLGQRATISCRASKSVSTSGYSFMHWYQQKPGQPPKLLIYLASNLESGVPARFSGSGSGTDFTLNIHPVEEEDAATYYCQHSREVPWTFGGGTKLEIKR
# modifications: non-natural residues
# notes: anti-CD70 mAb 1F6 linked to auristatin phenylalanine phenylenediamine by the valine-citrulline (vc) dipeptide linker
# Legend:
# [1] = test system: CD70^− Jurkat cells; test: 3H-TdR proliferation assay, hematologic lines; type: cell-based, human; details: at concentrations as high as 2 μg/ml
# Method: (§1) FIG. 5: Effects of anti-CD70 ADCs on the proliferation of transformed hematologic cell lines. A subset of the CD70^+ cell lines shown in FIG. 4 and the CD70^− Jurkat cell line were tested for their sensitivity toward 1F6 ADCs. Graded doses of the 1F6-vcMMAE, 1F6-vcAFP, or the corresponding non-binding control IgG (IgG) ADCs were added to cells at the initiation of culture. Cells were exposed to the ADCs continuously for a total of 96 hours. Proliferation was determined by pulsing with ^3H-TdR during the last 16 hours of incubation. The upper panels show the response of the WSU-NHL and Jurkat lines. The lower panel summaries the responses by the tested cell lines to 1F6-vcMMAE and 1F6-vcAFP in form of IC50s.
# (§2) A subset of the CD70^+ hematologic lines listed in FIG. 4 was tested for sensitivity to the 1F6 ADCs. These lines were seeded at 5,000 cells per well in 96-well plates in quadruplicates in a total of 200 μl of culture medium containing graded doses of the ADCs as indicated in the FIG. 5 and the accompanying figure legend. Proliferation assays were carried out for 96 hours. Tritiated thymidine (^3H-TdR) incorporation during the last 16 hours of incubation was used to assess DNA synthesis. The responses of a CD70^+ B lymphoma cell line WSU-NHL and the CD70^− Jurkat cells are shown in the upper panels of FIG. 5. […] Proliferation inhibitory effects were apparent when the ADCs were used at concentrations higher than 0.005 μg/ml. […] On the other hand, proliferation of the CD70^− Jurkat acute T leukemia cell line was not affected by either 1F6-vcMMAE or 1F6-vcAFP at concentrations as high as 2 μg/ml. […] The responses of other CD70^+ cell lines tested are summarized in the lower panel of FIG. 5. […] Moreover, EBV-LCLs are phenotypically very similar to activated normal B cells.
# [2] = test system: WSU-NHL cells; test: 3H-TdR proliferation assay, hematologic lines; type: cell-based, human; details: 96 hours, 3H-TdR last 16 hours
# Method: as §1, §2
# [3] = test system: 786-O cells; test: alamarBlue reduction cell viability (cytotoxicity) assay; details: 96 hours
# Method: (§3) 786-O or Caki-1 cells were incubated with graded doses of 1F6-vcAFP or the non-binding control IgG-vcAFP. Cells were incubated for a total of 96 hours. ^3H-thymidine incorporation (upper panel) and reduction of alamarBlue (lower panel) were used to determine proliferation and cell viability, respectively. Data points are expressed as percentages of the untreated control. Error bars represent the standard deviations of values obtained from quadruplicate wells.
# (§4) To examine the responses of CD70^+ RCC lines to 1F6 ADCs, cells were seeded between 1,000 to 3,000 cells per well in 100 μl of medium. An additional 100 μl of culture medium containing graded doses of ADCs were added to the wells after cells were allowed to attached overnight. In addition to DNA synthesis, cell viability, as a reflection of the cytotoxic activities of ADCs, was also assayed by the reduction of alamarBlue™ (Biosource International, Camarillo, Calif.). The alamarBlue™ dye was added at a one to four dilution during the last 4 to 24 hours of the incubation. Dye reduction was assessed by fluorescence spectrometry using the excitation and emission wavelengths of 535 nm and 590 nm, respectively. For analysis, the amount of ^3H-TdR incorporated or the extent of alamarBlue™ reduction by the treated cells was compared to that of the untreated control cells.
# [4] = test system: Caki-1 cells; test: as above; details: Caki-1, alamarBlue reduction, 96 hours
# Method: as §3, §4
# [5] = test system: CD70^+ RCC lines; details: in 4 of the 7 CD70^+ RCC lines tested
# Method: as §4
# [6] = test system: CD70^− Hs 835.T cells; test: 3H-TdR proliferation assay, CD70-negative RCC line; type: cell-based, human; details: CD70^− Hs 835.T, compared with CD70^+ RCC lines
# [7] = test system: CD70^+ CD8^+/Vβ17^+ T cells; test: In vitro deletion of M1 peptide-specific T cells (flow cytometry, viable counts); type: cell-based, human
# Method: PBMCs from a normal HLA-A0201donor were stimulated with the M1 peptide for 5 days. 1F6 ADCs or control non-binding IgG (cIgG) ADCs were added to cells to a final concentration of 1 μg/ml. Total viable cell counts were conducted at 24, 48, and 76 hours post drug addition. Total numbers of CD8^+/Vβ17^+ for each culture condition are calculated (upper panel).
# FIG. 19: Dose-response comparison of anti-CD70 ADCs on deletion of antigen-specific CD8^+/Vβ17^+ cells. PBMCs from a normal HLA-A0201donor were stimulated with the M1 peptide for 5 days. 1F6 ADCs or control non-binding IgG (cIgG) ADCs were given to cells to the specified final concentrations. The percentages of CD8^+/Vβ17^+ cells 4 days post ADC addition was determined by flow cytometry as in FIG. 17.
# To examine CD70 expression on activated antigen-specific T cells, PBMCs from a normal donor expressing HLA-A0201 were stimulated with the M1 peptide. PBMCs were seeded at 2×10^6 cells/ml with 5 μg/ml of M1 peptide in AIMV medium supplemented with 5% human AB serum. IL-2 (Proleukin, Chiron) and IL-15 (R&D Systems, MN) were added to final concentrations of 20 IU/ml and 5 ng/ml, respectively, once every two days beginning on day 2 after culture initiation. The expansion of CD8^+/Vβ17^+ T cells and induction of CD70 on the CD8^+/Vβ17^+ was followed by three-color flow cytometry. Vβ17^+ T cells were identified by the anti-TCRVβ17 mAb clone E17.5F3 (Beckman Coulter, Miami, Fla.).
# PBMCs from a normal donor expressing HLA-A0201 were stimulated with the M1 peptide as described in Example 11. On day 5, cells were harvested, washed, and re-seeded at 0.5-1×10^6 cells/ml (approximately 100,000 of CD8^+/Vβ17^+ T cells) in fresh AIMV medium supplemented with 5% human AB, 20 IU/ml of IL-2, and 5 ng/ml of IL-15. 1F6 or control non-binding IgG (cIgG) ADCs were added to some cultures to a final concentration of 1 μg/ml. Total viable cell counts were conducted 24, 48, and 76 hours after ADC addition. Two-color flow cytometry was conducted to determine the percentages of CD8^+/Vβ17^+ cells among the viable cells. The absolute number of CD8^+/Vβ17^+ T cells in each culture was then calculated. […] The effects of 1F6 ADCs on the CD8^+/Vβ17^− cells were also evaluated.
# The potency of three 1F6 ADCs was then compared. HLA-A0201 PBMCs were stimulated with the M1 peptide and re-seeded as described for FIG. 18 with the various ADCs at the indicated concentrations (FIG. 19). The percent of CD8^+/Vβ17^+ T cells after a 96-hour incubation was determined.
molecule,measurement,setting,value
B1,effect on proliferation of Jurkat cells,[1],not affected
same,effect on the proliferation of WSU-NHL cells,[2],dose-dependent inhibitory effects
same,concentration at which maximal cytotoxic effects were achieved,[3],lower than 0.1 μg/ml
same,concentration at which maximal cytotoxic effects were achieved,[4],lower than 0.1 μg/ml
same,IC50 values to induce cytotoxicity,[5],lower than 20 ng/ml
same,IC50 values for proliferation inhibition,[6],Substantially higher IC50 values
same,number of CD8^+/Vβ17^+ T cells,"[7]; 1 μg/ml, 76 hours after ADC addition",Virtually no expansion
same,"CD8^+/Vβ17^+ cells, of the control untreated culture","[7]; 1 μg/ml, end of the experiment",< 40%
same,inhibition of CD8^+/Vβ17^+ T cell expansion,[7]; 96-hour incubation,dose-dependent inhibition

# From patent publication US8663642B2, “Anti-CD70 antibody-drug conjugates and their use for the treatment and prevention of cancer and immune disorders” (priority 2003, dated 2014)
